According to IntAct's records for PubMed 29039417:

B1: Protein PTHB1 (Homo sapiens), Q3SYG4 (parent)
chain: MSLFKARDWWSTILGDKEEFDQGCLCLANVDNSGNGQDKIIVGSFMGYLRIFSPHPAKTGDGAQAEDLLLEVDLRDPVLQVEVGKFVSGTEMLHLAVLHSRKLCVYSVSGTLGNVEHGNQCQMKLMYEHNLQRTACNMTYGSFGGVKGRDLICIQSMDGMLMVFEQESYAFGRFLPGFLLPGPLAYSSRTDSFLTVSSCQQVESYKYQVLAFATDADKRQETEQQKLGSGKRLVVDWTLNIGEQALDICIVSFNQSASSVFVLGERNFFCLKDNGQIRFMKKLDWSPSCFLPYCSVSEGTINTLIGNHNNMLHIYQDVTLKWATQLPHIPVAVRVGCLHDLKGVIVTLSDDGHLQCSYLGTDPSLFQAPNVQSRELNYDELDVEMKELQKIIKDVNKSQGVWPMTEREDDLNVSVVVSPNFDSVSQATDVEVGTDLVPSVTVKVTLQNRVILQKAKLSVYVQPPLELTCDQFTFEFMTPDLTRTVSFSVYLKRSYTPSELEGNAVVSYSRPTDRNPDGIPRVIQCKFRLPLKLICLPGQPSKTASHKITIDTNKSPVSLLSLFPGFASQSDDDQVNVMGFHFLGGARITVLASKTSQRYRIQSEQFEDLWLITNELILRLQEYFEKQGVKDFACSFSGSIPLQEYFELIDHHFELRINGEKLEELLSERAVQFRAIQRRLLARFKDKTPAPLQHLDTLLDGTYKQVIALADAVEENQGNLFQSFTRLKSATHLVILLIALWQKLSADQVAILEAAFLPLQEDTQELGWEETVDAAISHLLKTCLSKSSKEQALNLNSQLNIPKDTSQLKKHITLLCDRLSKGGRLCLSTDAAAPQTMVMPGGCTTIPESDLEERSVEQDSTELFTNHRHLTAETPRPEVSPLQGVSE
partner: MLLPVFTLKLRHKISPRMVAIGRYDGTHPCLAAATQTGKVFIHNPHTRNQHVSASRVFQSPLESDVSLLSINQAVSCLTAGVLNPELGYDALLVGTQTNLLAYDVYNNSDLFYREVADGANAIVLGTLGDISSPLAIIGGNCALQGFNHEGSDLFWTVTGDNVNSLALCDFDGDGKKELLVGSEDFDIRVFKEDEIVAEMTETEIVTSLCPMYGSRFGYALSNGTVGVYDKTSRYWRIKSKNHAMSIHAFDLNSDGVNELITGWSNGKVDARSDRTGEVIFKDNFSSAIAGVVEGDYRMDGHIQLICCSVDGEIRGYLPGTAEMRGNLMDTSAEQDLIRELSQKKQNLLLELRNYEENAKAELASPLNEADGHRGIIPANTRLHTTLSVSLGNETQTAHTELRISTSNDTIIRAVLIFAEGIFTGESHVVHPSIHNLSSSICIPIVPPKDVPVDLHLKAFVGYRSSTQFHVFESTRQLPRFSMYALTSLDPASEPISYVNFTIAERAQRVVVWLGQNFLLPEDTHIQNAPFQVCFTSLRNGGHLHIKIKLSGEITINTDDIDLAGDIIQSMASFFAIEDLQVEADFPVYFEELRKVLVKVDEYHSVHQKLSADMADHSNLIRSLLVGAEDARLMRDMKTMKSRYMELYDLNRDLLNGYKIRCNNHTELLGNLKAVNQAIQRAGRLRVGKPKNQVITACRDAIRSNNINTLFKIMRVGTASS

Variants of: B1
Details: with bbs2_human BBS2, Q9BXC9

Variant	effect of a mutation on the interaction
Q574K	with no effect
Q574A	with no effect
Q574E	with no effect
Q574L	disrupting interaction strength
Q539K	with no effect
Q539E	with no effect
Q539A	with no effect
G579E	with no effect
G579K	with no effect
G579A	with no effect
T589S	disrupting interaction strength
T589A	with no effect
T589K	with no effect
T589E	with no effect
H581P	disrupting interaction strength
H581Y	disrupting interaction strength
H581K	with no effect
H581A	with no effect
H581E	with no effect
I588A	with no effect
I588K	with no effect
I588E	with no effect
S568K	with no effect

Variant	effect of a mutation on the interaction
S568E	with no effect
S568A	with no effect
G585A	with no effect
G585E	with no effect
G585R	disrupting interaction strength
G585K	with no effect
F582K	with no effect
F582E	with no effect
F582A	with no effect
C535E	with no effect
C535K	with no effect
C535A	with no effect
I550K	with no effect
I550E	with no effect
I550A	with no effect
L536K	with no effect
L536A	with no effect
L536E	with no effect
P537E	with no effect
P537A	with no effect
P537K	with no effect
V557E	with no effect
V557K	with no effect

Variant	effect of a mutation on the interaction
V557A	with no effect
G538E	with no effect
G538A	with no effect
G538K	with no effect
L562E	with no effect
L562K	with no effect
L562A	with no effect
V577K	with no effect
V577A	with no effect
V577E	with no effect
K532E	with no effect
H546K	with no effect
H546A	with no effect
H546E	with no effect
G584A	with no effect
G584K	with no effect
G584E	with no effect
G565K	with no effect
G565A	with no effect
G565E	with no effect
G565R	disrupting interaction strength
P540K	with no effect
P540A	with no effect

Variant	effect of a mutation on the interaction
P540E	with no effect
I548K	with no effect
I548A	with no effect
I548E	with no effect
L559R	disrupting interaction strength
L559E	with no effect
L559A	with no effect
L559K	with no effect
S570K	with no effect
S570E	with no effect
S570A	with no effect
S558E	with no effect
S558A	with no effect
S558K	with no effect
S558N	disrupting interaction strength
V590K	with no effect
V590E	with no effect
V590A	with no effect
L583K	with no effect
L583A	with no effect
L583E	with no effect
A544E	with no effect
A544K	with no effect

Variant	effect of a mutation on the interaction
T543A	with no effect
T543K	with no effect
T543E	with no effect
A567E	with no effect
A567K	with no effect
D572E	with no effect
D572A	with no effect
D572K	with no effect
D573K	with no effect
D573E	with no effect
D573A	with no effect
K542E	with no effect
K542A	with no effect
N553E	with no effect
N553A	with no effect
N553K	with no effect
N553T	disrupting interaction strength
F566E	with no effect
F566A	with no effect
F566K	with no effect
I534A	with no effect
I534E	with no effect
I534K	with no effect

Variant	effect of a mutation on the interaction
S541A	with no effect
S541E	with no effect
S541K	with no effect
A586E	with no effect
A586K	with no effect
S555E	with no effect
S555K	with no effect
S555A	with no effect
T549A	with no effect
T549E	with no effect
T549K	with no effect
V575E	with no effect
V575K	with no effect
V575A	with no effect
D571A	with no effect
D571E	with no effect
D571K	with no effect
D551A	with no effect
D551E	with no effect
D551K	with no effect
S561K	with no effect
S561E	with no effect
S561A	with no effect

Variant	effect of a mutation on the interaction
L533K	with no effect
L533E	with no effect
L533A	with no effect
T552A	with no effect
T552E	with no effect
T552K	with no effect
F580K	with no effect
F580E	with no effect
F580A	with no effect
K547A	with no effect
K547E	with no effect
S545A	with no effect
S545E	with no effect
S545K	with no effect
R587T	disrupting interaction strength
R587A	with no effect
R587E	with no effect
R587K	with no effect
P556K	with no effect
P556E	with no effect
P556A	with no effect
P556Q	disrupting interaction strength
N576E	with no effect

Variant	effect of a mutation on the interaction
N576A	with no effect
N576K	with no effect
Q569K	with no effect
Q569E	with no effect
Q569A	with no effect
M578K	disrupting interaction strength
M578A	with no effect
M578E	with no effect
F563E	with no effect
F563A	with no effect
F563K	with no effect
K554S	disrupting interaction strength
K554E	with no effect
K554A	with no effect
P564A	with no effect
P564K	with no effect
P564E	with no effect
L560A	with no effect
L560K	with no effect
L560E	with no effect
